Data taken from the DeepSol protein solubility set.

Assay: soluble on expression in E. coli; label from the status in PepcDB or PDB records

| Sequence | soluble on expression in E. coli |
| --- | --- |
| MDLEAPPTLLQLAAQCTVRKEVLTISVLQNLPMKLFPPLFKEADILRKAKMIKLLVEYWPYPSLLVGLLIDKTNLETFQAILEGVGTWLKRKYRPRMGKLQVVDLRNGHHDFWDMLAGREGGDQLVETMPEKQEVEGHSRRQRLRVFSDLSFKSSRHEDKQQTHLLQWAKDREGFLHLCCEKLEIGALGVSKVKKVLKLLQPEFIKELELNTVGNLSKLTKLVPCISKMRNLQKLMLVRIFGRHTYTPLEERNVTKILSLFPKLSYLQHLTIDDVYFLRDHMNELFRYLEAPLLSLTITLCQISQSDLESFSQHWNYGQLKHLCLKGVSLSTLNVTPLKFFLESVADTLQTLELEDCRMKDSHLRILLPALTKCTRLTSINFYDNNISRDVLQDLLHRTANMSQLTMELYPAPVEVYNEWSYVQVERFSQLCAELMNTLITVRRPKSVCFGTYSCYDCDTHCIYGNQTTFCECLE | not soluble |
| MDLHLKNLFGRFQEQFGSGPGLGPGSGVCLMIVEGISSNIIQSIFRASASLYSSEPWKRLRPGHLFGVRVGKDSDWSGKRQPFQCVQFIGGDGGDIAIYMYRSMSYALKMTDGDSWEMARDPNVEVFRVTYELESLMLPSNKRMVKSLSLEVSGTDRFPIMDVARCMTSGELQFRSPTLEELRLVFAVMKALSLVHPLLLQEEKQVRGLPRMIKFSPFIETVDVQWPSEMGKGHDFVAVTVSHPPGQSYEQKREDDELEIVSGMTA | soluble |
| MDLHLTVDLKKTKTLIDLADQAHLIIEQTTKLPKKEAAILFLLIDNQLVALGLAEEKATYKEVSFDHSILLKPTWDTELAYLAQAFLDDAKESGLTLEATPTTVKIPKSAVATVTNYKETVTFILERFGYSLFKKPAPKKARPAKARHKWTKEVSQIPFYIDTRQSKATVFWQKRNEMLIKAGATMMPEAPLNKDGSVGFSARFGEKLRDERKGQFKDFVTTEDIVLKSVNEVGLFLYFAGTNSWLELVDENGKTLNEWTVVE | not soluble |
| MDLPDPYLPGAISLFEQLDKKLLVVLRDGRKLIGFLRSIDQFANLILEDVVERTFVEKYFCETGQGFMLIRGENVELAGEIDDTIETGLTQVSPEEFRRLEDEYIAKNPPKFLKRQAEKTEEHDA | not soluble |
| MDLSTSGSLPCHLPLSLLTNLQTPPIDTSFSSPPATSSSSLLSPSPSSAFRPVVPKSLMNPQPAMDTFYMSAIQSLVVSTTNDDQYSEHGALEGSKSLAKDENASTSAGTILCQVCSDKASGFHYGVFACEGCKGFFRRSIQQKITYRACTRAEDCLILRNNRNRCQCCRLKKCLAVGMSRDAVRFGRVPKREKARMFEEMQKTNVQSQRDQIAIQYENLTEVMHKINQAFGTLQATLEKCTGPIYTDRCPITSNFIVIPLKAAIDFANSIPAFLSITQTQRVHLLQNSVFDVMLLASASASTSQHFPPGGLTYDQSSANPIIPQAIQSISARIRQLPPQTVPILTAIAVCQADLLPESQQPMLLAERLWCVLGKLGGIQSLATAPSLLADVRTLRQWHSDRLRQMSQISQHFSQNLLIAPVAAAAPVLLPPAFLSPPASATSTSSSSVKSEFIERHPSIASLLERPRRISSSGAQEPLNLSLPHVRHQVKRDVDSDEQLEEMKVSPVPTTLSE | not soluble |
| MDMNVEIFAGIVNNPLTKKALRNLSGSCKTCGDKRIKIAIDYALGYRSDACWKCRAAAKVVKKVIEAGGRAFNVDMNEIREKFRDAYWRKGLASVIKGIAHFGVRKPFVPGAPFQVVWDITYSCNLRCKHCYATAGKPLQDELTTDEALETIDKLDRLGVTIIAFSGGEPLVRRDIFELTRYAAEKGIYVAIATNGTLITEEIAKRMKENGVGYVQISLDGMKETHEAFRGIRGCFDKTVEGIRNAVKTGLFVNVSMTVTRYNYHEVPKVVELCEKLGVNWFMHYNFIPTGRGREIVEADITPEQREELLKWLYEKNYSSNISLLSTAPQFARVALQCQGEIVPTHFYNVNAGERLKELAEFIGGCGAGRFYFAIKANGDIQPCVFFPLKVGNVREDDLEELWLHNHVFEDLRDKDILEGCGSCGYRYVCGGCRARAYNYFGDYTKPDPGCVNNRRWWERISKIEVRA | not soluble |
| MDNAHTPPFAGLTPDAILDAVESLGLRASGSLLALNSYENRVYQVGLDDAAPLVAKFYRPARWSDAAILEEHAFSLQLAEREIPAVPPLAFGGRTLHGHGGFRFALFERRGGRVPELDRDETLQWVGRFLGRIHALGRTEGYRHRPTLDMQSFGREPVDFVLGGGWLPPELEAVYRGVAEQALQGVARCFERAGPVAQLRLHGDCHVGNLLWTDAGPHFVDFDDSRMGPAVQDLWMLLSGERAEQSRQLGEVLAGYEDFCEFDLRELNLLEALRTLRLLHYSAWLARRWHDPAFPAAFPWFGAPRYWEEQILALREQIALMDEPPLWSCLEHHHHHH | not soluble |
| MDNKNFQSKTGFNLENTYLTLPNIFFSEQNPKGSKNPKLIKFNTSLAEELGLNEEVLNSDFGLNIFAGNETFPGIVPIAQAYAGHQFGHFTMLGDGRALLLGEHVTKDCKRYDVQLKGSGRTIYSRGGDGKAALAPMLREYIISEGMHGLGIPTTRSLAVVSTGEEVLRERFEQGAILTRIASSHIRVGTFAYAAQWGTLEDLKSLADYTIKRHFPNIADNENKYILFLEEVINRQAELIVKWQSVGFIHGVMNTDNMVISGETIDYGPCAFMDTYDTNTVFSSIDYAGRYAYGNQPNMALWNLARFSEALLPLLNPNLDEAVNIAKKSISNFSKLYKKYWFNKMRTKLGLFTEKENDELLIEGLLSTMQKYEADFTNTFVSLTLNKFEDEKVFSSDEFKTWYALWQNRLKEENRPQEEVRNLMMNNNPYIIPRNHLVEEALKNAEKGDFTFMDNLLEALKNPYSYSKDLEKYTKLPEKSDTPYVTYCGTLEHHHHHH | not soluble |
| MDNMKRNMPYLPSFKLTDFDIKTLVQPILCPRSQEIQYYETLSKISTFAQSNINNDVFFSIIDNTFIQTLALQQIRFSLEKYPHQLHSFNIKLSCLADEDFVRELLSFHGAKFALEISELDCYTESKEIRENLSVLQANNIEIWLDDYHRNNKLANMSLGNILWDRIKIDKSFLKHADQESIQALEYFLAPFCLHGLIFEGAEYIEHHKMLKTSQSLTQGYYYFRPSPINSLDSKPRVAESIKLSYAG | not soluble |
| MDNNIDFIVTWVNGGDPDWLKKKNKYLPVNESNENMNSESRYRDFDIFKFWFRAVEKFAPWVHKIYLITDNQVPDWLDTRNSKLTVIDHRDIMDADWLPTFNSNAIELNAYKIKNLSEKFVLFNDDTILNSYVDKVDFFDENYPKDIYVESPIMATKGSVDHIMVNNVEIINEFFEKKNFYKKNLTKVFNPKIGIKLLRTLALLPSSKFAGFWNSHLPISYNKTTFETVWSNCEGKLVATSKNKFRTAYDVSHWLMRYWQLASGNYHLQNNIGKVYDLSSQNIDEVVTQLQRSHSKIICLNDNDELDDYEGVKGKLVTTLNEKFSEKSKFELLEHHHHHH | soluble |
| MDPELQCIRECRLAQLKNNSGGTNGDRNSGANNGGGENSAPVGAAIANFLEPQALERLSRVALVRRDRAQAVETYLKKLIATNNVTHKITEAEIVSILNGIAKQQNSQNNSKIIFEAAALEHHHHHH | soluble |
| MDPFDEIVIKNYLSFPLVLQKLLSIKKLRRIEFFSQNMATHIVFDELGMTTKGFRPDKEVEKLLLKLELIDKRIERTLFRQKHFERFWATLKPLEQQLLIRRFKYKEEVNCPHRLIESVLDEIEEIETAICLMENIELEENELSDDVEENLERMCDFFAL | not soluble |
| MDPNFHNTGPSGSAPRKPETWRSCKEANKVIEMFYSEGNFYHDIYMEELANLAETSHKNVRDTLSRLRKKDERAGKYVPPPPKQMYEFTSEQRGALDQAFLVTPQMDSDGARELSEITGLTVKQINNWFCNQRRKADGRSAEKDKKRRERIREDMKKNGLGRVGTFRSEAVELFEKEYETMLQLEAIGGGKVRIPYTELVEKTGMERKKIRDWFSKRKGRDKRFLENMENTREVSPQNTQQNIQDILIKIVTQKEESALQRHAPEMRDAGQRDGFCLFGFFLRD | not soluble |
| MDPTLYCVVAVDTKLGIGKNRCLPWPALRGDMRRFRQLTTDCAPGKQNMVVMGRRTWLSIPAGCRPLAGRINVVLSRTLETPPPGAHFLASSLDAALGLARSPELAQQIDKVWVIGGGDLYREALTGPWPVRLFLTRVLHDFACDVFLSHDSLAAYARVNPKPGEQERVFQERGIFYMFETYIKVTQSSDTALPDLERPRPATPPFSETS | soluble |
| MDPVIKLVAHAQEMSMTIPRRQACMVYGKLNVTLKKGDVQEERDKRVTDGYVHIPEDMPQGRFDFGFTREDADVNIGTGQSTYELALDTAARRITGQVLFEQDIIAPGFGDWRPLIDFSCGDLVGVRIWGKELVLPVTSITRETTGWRAHVGGQLINDRRKIISENRKILADIESERRER | not soluble |
